{
  "source": "patent US20190062442A1",
  "biological_target": "FLAG-tagged human PrP^c_N1 (recombinant N-terminal fragment of cellular prion protein, 23-111 amino-acids) (human) (UniProt P04156)",
  "sequence (P04156 23-111)": "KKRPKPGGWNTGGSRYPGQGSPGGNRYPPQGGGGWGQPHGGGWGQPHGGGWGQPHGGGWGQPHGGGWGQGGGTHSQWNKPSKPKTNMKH",
  "data": [
    {"substance": "anti-CD230 (Prion) antibody 6D11 Mu IgG2a (BioLegend, San Diego, Calif.)", "values": [
      {"measurement": "IC50", "value": 17.6, "unit": "nM"}
    ]}
  ]
}
